Positions count from the first letter of the chain named.
Target: T1, hiR2-FL-I566E-T7 (human, UniProt Q6PJF5 1-856)
T1 construct: on MEF-DKO cells; also called hiR2-FL-1566E-T7
T1 sequence: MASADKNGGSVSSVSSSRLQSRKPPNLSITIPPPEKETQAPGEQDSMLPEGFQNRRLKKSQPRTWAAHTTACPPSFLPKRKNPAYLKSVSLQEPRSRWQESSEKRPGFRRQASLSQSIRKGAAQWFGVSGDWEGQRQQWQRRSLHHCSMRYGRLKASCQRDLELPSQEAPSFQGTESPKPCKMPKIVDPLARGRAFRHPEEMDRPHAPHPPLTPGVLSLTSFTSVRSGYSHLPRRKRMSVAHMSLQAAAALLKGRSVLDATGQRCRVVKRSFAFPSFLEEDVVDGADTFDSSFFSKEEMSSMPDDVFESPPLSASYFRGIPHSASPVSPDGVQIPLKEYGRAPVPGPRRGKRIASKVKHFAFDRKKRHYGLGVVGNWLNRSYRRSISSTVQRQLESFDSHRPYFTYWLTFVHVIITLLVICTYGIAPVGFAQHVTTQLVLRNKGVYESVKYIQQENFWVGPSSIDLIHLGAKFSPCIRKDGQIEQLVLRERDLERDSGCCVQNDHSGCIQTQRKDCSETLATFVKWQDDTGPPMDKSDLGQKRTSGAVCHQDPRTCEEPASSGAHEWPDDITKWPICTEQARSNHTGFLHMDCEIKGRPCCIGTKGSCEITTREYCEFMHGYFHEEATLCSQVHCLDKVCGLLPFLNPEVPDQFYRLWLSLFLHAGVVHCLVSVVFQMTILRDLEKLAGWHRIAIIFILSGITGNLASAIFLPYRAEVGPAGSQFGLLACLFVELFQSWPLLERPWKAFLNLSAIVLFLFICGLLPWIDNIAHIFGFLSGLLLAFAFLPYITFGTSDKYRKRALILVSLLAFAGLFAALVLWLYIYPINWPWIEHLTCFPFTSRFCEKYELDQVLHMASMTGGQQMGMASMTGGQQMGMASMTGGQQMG
Test: FACS, MEF-DKO cells, 3 µg/ml
Description: In brief, immortalized MEF-DKO hiR2-FL-G563D-T7, MEF-DKO hiR2-FL-A564P-T7, MEF-DKO hiR2-FL-1566E-T7, MEF-DKO hiR2-FL-D569E-T7, MEF-DKO hiR2-FL-E579K-T7, MEF-DKO hiR2-FL-Q580N-T7, MEF-DKO hiR2-FL-A581S-T7, MEF-DKO hiR2-FL-R582A-T7, MEF-DKO hiR2-FL-S583G-T7, MEF-DKO hiR2-FL-G587N-T7, MEF-DKO hiR2-FL-F588H-T7, MEF-DKO hiR2-FL-L589P-T7, MEF-DKO hiR2-FL-E594V-T7, MEF-DKO hiR2-FL-K596T-T7, MEF-DKO hiR2-FL-S607R-T7, MEF-DKO hiR2-FL-T612S-T7, MEF-DKO hiR2-FL-E617D-T7, MEF-DKO hiR2-FL-H620R-T7, MEF-DKO hiR2-FL-L636M-T7, MEF-DKO hiR2-FL-K638D-T7, MEF-DKO hiR2-FL-1771F-T7, MEF-DKO hiR2-FL-1825V-T7, MEF-DKO hiR2-FL-1828V-T7, MEF-DKO hiR2-FL-N829R-T7, MEF-DKO hiR2-FL-W830C-T7, MEF-DKO hiR2-FL-P831E-T7, MEF-DKO hiR2-FL-I833C-T7, MEF-DKO hiR2-FL-H835F-T7, MEF-DKO hiR2-FL-F8391-T7, MEF-DKO hiR2-FL-S843D-T7, MEF-DKO hiR2-FL-Q853A-T7, MEF-DKO hiR2-FL-V854Q-T7 and MEF-DKO hiR2-FL-R844K-T7 cells were harvested with 10 mM EDTA in PBS, washed and resuspended in FACS buffer (PBS, 3% FBS, 0.05% sodium azide), and seeded in Nunc U-bottom 96-well plates (Thermo Fisher Scientific, USA) at approximately 1×10⁵ cells per well. To pellet cells and remove supernatants, the plates were centrifuged at 1,500 rpm and 4° C. for 3 minutes. For primary staining, cells were resuspended in 100 μl per well of either FACS buffer alone (controls) or the purified antibodies 3, 5, 16, 22, 34, 42, 43, 44, 48, and 50 of the invention at 3 μg/ml in FACS buffer and incubated on ice for 1 hour. Afterwards, plates were centrifuged at 1,500 rpm and 4° C. for 3 minutes and washed twice with 200 μl per well of FACS buffer. For secondary staining, cells were spun down and resuspended in 100 μl per well of PE-conjugated goat anti-mouse IgG F(ab′)2 detection fragment (Dianova, Germany) diluted 1:100 in FACS buffer. Protected from light, the cell suspensions were incubated on ice for 1 hour. Plates were then centrifuged at 1,500 rpm and 4° C. for 3 minutes and washed three times with 200 μl per well of FACS buffer. Finally, cells were resuspended in 150 μl per well of FACS buffer and analyzed using a BD Accuri™ C6 Plus flow cytometer (Becton Dickinson, Germany).

B1: antibody 34 (antibody, V domains shown)
VH: QVTLKESGPGILQPSQTLSLTCSFSGFSLSTFSLGVGWIRQSSGKGLEWLAHIWWDDEKYYNPALKSRLTISKDTSKNQVFLKIANVDAADTATYYCARAYYSKSYYALDYWGQGTSVTVSS
VL: DIQMTQSPSSLSASLGERVSLTCRASQEISGYLSWLQQKPDGTIKRLIYAASTLDSGVPKRFSGSRSGSDYSLAISSLESEDFADYYCLQYANFPFTFGSGTKLEIK
notes: mouse IgG, kappa light chain; also called clone #34; purified antibody 34
  loss of binding vs wild type: ≥ 60%

B2: antibody 3 (antibody, V domains shown)
VH: QVTLKESGPGILQPSQTLSLTCSFSGFSLTTFAMGIGWVRQPSGKGLEWLAHIWWDGEKYNNPVLKSRLTISKDTSKNQVFLRIANVDTPDTATYYCARISSIYYIIDNWGQGTSVTVSS
VL: DIVLTQSPATLSVTPGHSVSLSCRASQSISNNLHWYQKKSHESPRLLIKYVSQSISGIPSRFSGSGSGTDFTLSINSVETEDFGMYFCQQSYNWPLTFGAGTKLELK
notes: mouse IgG, kappa light chain; also called clone #3; purified antibody 3
  loss of binding vs wild type: ≥ 30%

B3: antibody 5 (antibody, V domains shown)
VH: QVTLKESGPGILQPSQTLSLTCSFSGFSLSTFGMGVGWIRQPSGKGLEWLAHIWWDDEKYYNSALKSRLTISKATSKNQAFLKIANVDTADTATYYCARISNYGSNYWYFNVWGTGTTVTVSS
VL: QVVLTQSPALMSASPGEKVTMTCSAGSSVSCMYWYQQKPGSSPRVLIYDTSNLASGVPARFTGSGSGTSYSLTISRMEAEDAASYYCQQWNSYPLTFGAGTKLELK
notes: mouse IgG, kappa light chain; also called clone #5; purified antibody 5
  loss of binding vs wild type: ≥ 95%

B4: antibody 42 (antibody, V domains shown)
VH: B3 VH with F24L, M34R, S63P, A74D, A80V, K83R, S101Q, N111D
VL: LIVLTQSPAIMSASPGEKVTMTCGATSRISYMFWYQQKPGSSPRVLIYDTSNLASGVPVRFSGSGSGTSYSLTISRVEAEDVATYYCQQWNSYPLTFGAGTKLELK
notes: mouse IgG, kappa light chain; also called clone #42; purified antibody 42
  loss of binding vs wild type: ≥ 60%

B5: antibody 43 (antibody, V domains shown)
VH: B3 VH with T3A, P42S, H52N, E58D, S63P, A74D, T75A, S101G, N111D
VL: B4 VL with L1Q, K18R, G24S, T26N, F33Y, V45L, V77M, V82A, Y86N, N91S
notes: mouse IgG, kappa light chain; also called clone #43; purified antibody 43
  loss of binding vs wild type: ≥ 60%

B6: antibody 44 (antibody, V domains shown)
VH: B3 VH with G44E, E58D, S63P, A74D, A80I, A85T, D91E, A98S, S101G, N111D
VL: QIVLTQSPAVMSASPGEKVTMTCTASSSVYYMYWYQQTPGSSPRLLIYDTSNLASGVPVRFSGSGSGTSYSLTISRMEAEDAATYYCQQWNTYPLTFGAGTKLELK
notes: mouse IgG, kappa light chain; also called clone #44; purified antibody 44
  loss of binding vs wild type: ≥ 60%

B7: antibody 22 (antibody, V domains shown)
VH: B3 VH with A80V
VL: B3 VL with C31Y, S84T
notes: mouse IgG, kappa light chain; also called clone #22; purified antibody 22
  loss of binding vs wild type: ≥ 60%

Reference: patent publication US20240287172A1 (SCIRHOM, published 2024)
